{
  "source": "paper doi:10.1101/2024.03.09.584257",
  "target": "ICP1 Cas1 (Vibrio cholerae phage ICP1_2011_A)",
  "data": [
    {"substance": "ICP1 Cas1 (natural protein)", "values": [
      {"measurement": "stoichiometry N", "value": 2}
    ]}
  ]
}
